Some results are limits rather than exact numbers.

This note sets out measurements from the Immune Epitope Database (IEDB).

One experiment has as its target HLA-B*39:01. Put plainly: IEDB peptide-MHC binding, purified MHC/direct/fluorescence; filed as Kd, often an IC50 or EC50 that approximates it; ≥ and ≤ were set here for values at or beyond the usual limits of such assays. Conditions: source organism: Mycobacterium tuberculosis str. Haarlem.
In a further experiment the target is HLA-A*01:01. The experiment is described as above.
The target of a further experiment is HLA-B*07:02. The experiment is described as above.
A further experiment concerns the target HLA-B*27:05. The experiment is described as above.
Experiment [1] addresses HLA-A*31:01. The description is as above.
For a further experiment, the target named is HLA-A*03:01. Described as above.
The next experiment has as its target HLA-B*44:02. The description is as above.
Experiment [2] addresses HLA-B*15:01. Described as above.
A further experiment deals with HLA-B*57:01. The experiment is described as above. Conditions: source organism: Mycobacterium tuberculosis str. Haarlem.
In another experiment the target is HLA-B*46:01. The experiment is described as above.
Experiment [3] concerns the target HLA-A*02:01. Described as above.
In the next experiment the target is HLA-B*58:01. The experiment is described as above.
The next experiment deals with HLA-A*02:06. The experiment in a line: IEDB peptide-MHC binding, purified MHC/competitive/fluorescence; filed as Kd, often an IC50 or EC50 that approximates it; ≥ and ≤ were set here for values at or beyond the usual limits of such assays. Conditions: source organism: Burkholderia orbicola.
Experiment [4] has as its target HLA-A*02:01. The experiment is described as above.
The target in a further experiment is HLA-B*08:01. Put plainly: IEDB peptide-MHC binding, purified MHC/competitive/fluorescence; ≥ and ≤ were set here for values at or beyond the usual limits of such assays.
In experiment [5] the target is HLA-A*02:01. The experiment in a line: IEDB peptide-MHC binding, purified MHC/competitive/radioactivity; ≥ and ≤ were set here for values at or beyond the usual limits of such assays.
In the next experiment the target is HLA-C*07:02. The experiment in a line: IEDB peptide-MHC binding, purified MHC/direct/fluorescence; filed as Kd, often an IC50 or EC50 that approximates it; ≥ and ≤ were set here for values at or beyond the usual limits of such assays.
The target in a further experiment is HLA-C*12:03. The experiment is described as above. Conditions: source organism: Homo sapiens.
The target in a further experiment is HLA-C*06:02. The description is as above. The settings on record: source organism: Influenza A virus (A/chicken/Fujian/25/00(H9N2)).
A further experiment addresses HLA-C*05:01. Described as above. Conditions: source organism: Influenza A virus (A/chicken/Fujian/25/00(H9N2)).
For another experiment, the target named is HLA-A*26:01. Described as above. Conditions: source organism: Vibrio vulnificus CMCP6.
The target in the next experiment is HLA-B*15:09. The experiment is described as above.
The target of a further experiment is HLA-A*69:01. Described as above. Conditions: source organism: Vibrio vulnificus.
A further experiment deals with HLA-B*40:01. The description is as above.
In experiment [6] the target is HLA-A*11:01. Described as above.
Experiment [7] has as its target HLA-A*24:02. Described as above.
In another experiment the target is HLA-B*15:42. Put plainly: IEDB peptide-MHC binding, purified MHC/competitive/fluorescence; filed as Kd, often an IC50 or EC50 that approximates it; ≥ and ≤ were set here for values at or beyond the usual limits of such assays. Conditions: source organism: Listeria monocytogenes serotype 4b str. CLIP 80459.
The next experiment has as its target HLA-B*83:01. Described as above. Conditions: source organism: Listeria monocytogenes serotype 4b str. CLIP 80459.
In experiment [8] the target is HLA-A*31:01. The experiment is described as above. The settings on record: source organism: Listeria monocytogenes serotype 4b str. CLIP 80459.
Experiment [9] has as its target HLA-A*11:01. The description is as above. Conditions: source organism: Listeria monocytogenes serotype 4b str. CLIP 80459.
A further experiment has as its target HLA-A*68:23. The description is as above. The settings on record: source organism: Listeria monocytogenes serotype 4b str. CLIP 80459.
In the next experiment the target is HLA-B*45:06. The experiment is described as above. The settings on record: source organism: Listeria monocytogenes serotype 4b str. CLIP 80459.
The target in the next experiment is HLA-C*14:02. The experiment in a line: IEDB peptide-MHC binding, purified MHC/direct/fluorescence; filed as Kd, often an IC50 or EC50 that approximates it; ≥ and ≤ were set here for values at or beyond the usual limits of such assays. Conditions: source organism: Human herpesvirus 4 strain B95-8.
A further experiment concerns the target HLA-B*08:02. The experiment is described as above. Conditions: source organism: Giardia lamblia ATCC 50803.
The target of another experiment is HLA-B*18:01. Described as above. The settings on record: source organism: Giardia lamblia ATCC 50803.
Experiment [10] deals with HLA-B*15:01. Put plainly: IEDB peptide-MHC binding, purified MHC/competitive/fluorescence; ≥ and ≤ were set here for values at or beyond the usual limits of such assays. The settings on record: source organism: Zaire ebolavirus.
The target of experiment [11] is HLA-A*24:02. The experiment is described as above. The settings on record: source organism: Zaire ebolavirus.
For experiment [12], the target named is HLA-A*02:01. The description is as above. The settings on record: source organism: Zaire ebolavirus.
The target of a further experiment is HLA-A*68:02. Put plainly: IEDB peptide-MHC binding, purified MHC/competitive/fluorescence; filed as Kd, often an IC50 or EC50 that approximates it; ≥ and ≤ were set here for values at or beyond the usual limits of such assays. The settings on record: source organism: Campylobacter jejuni subsp. jejuni 81-176.
[13] abbreviates: source organism: Mycobacterium tuberculosis str. Haarlem.
The mark [14] stands for this setting: source organism: Influenza A virus (A/chicken/Fujian/25/00(H9N2)).
Setting [15] is: source organism: Vibrio vulnificus.
Setting [16] is: source organism: Giardia lamblia ATCC 50803.
Setting [17] is: source organism: Zaire ebolavirus.

In the case of FHARFVQAL, the Kd in the experiment with HLA-B*39:01 is 0.0556 µM; in the experiment with HLA-A*01:01 (setting [13]) it was at least 20 µM; with HLA-B*07:02 (setting [13]) it was at least 20 µM; with HLA-B*27:05 (setting [13]), at least 20 µM; in the experiment with HLA-A*31:01 [1] (setting [13]) it was at least 20 µM; with HLA-A*03:01 (setting [13]), at least 20 µM. In addition, the Kd with HLA-B*44:02 (setting [13]), with HLA-B*15:01 [2] (setting [13]), with HLA-B*57:01, with HLA-B*46:01 (setting [13]), with HLA-A*02:01 [3] (setting [13]) and with HLA-B*58:01 (setting [13]) was at least 20 µM each time.
For the sequence MQACPVDAI, the results for the Kd with HLA-A*02:06 and with HLA-A*02:01 [4] (source organism: Burkholderia orbicola) were 0.0013 µM and 0.0086 µM, respectively.
Sequence MLYQLLEAV had an IC50 with HLA-B*08:01 (source organism: Vaccinia virus Copenhagen) of at least 303 µM.
On to KLIDRTESL, for which the IC50 with HLA-A*02:01 [5] (source organism: Homo sapiens) came to 0.102 µM.
On to FLLENAAYL, for which the values for the Kd with HLA-C*07:02 (source organism: Homo sapiens) and with HLA-C*12:03 were 0.354 µM and 0.291 µM, respectively.
Regarding WMMAMRYPI, the Kd with HLA-A*02:01 [4] (setting [14]) is 0.0002 µM; with HLA-C*07:02 (setting [14]), 1.84 µM; with HLA-C*06:02, at least 20 µM; with HLA-C*05:01, at least 20 µM.
Consider QSDIAGAIH, for which the Kd in the experiment with HLA-A*26:01 is at least 20 µM; in the experiment with HLA-B*15:09 (source organism: Vibrio vulnificus CMCP6), at least 20 µM; with HLA-A*01:01 (setting [15]) it was 1.66 µM; with HLA-B*07:02 (setting [15]), at least 20 µM; with HLA-B*27:05 (setting [15]) it was at least 20 µM; in the experiment with HLA-A*69:01, at least 20 µM. For the same sequence, the Kd with HLA-B*40:01 (setting [15]), in the experiment with HLA-A*31:01 [1] (setting [15]), in the experiment with HLA-A*03:01 (setting [15]), with HLA-B*44:02 (setting [15]), with HLA-B*15:01 [2] (setting [15]) and with HLA-B*46:01 (setting [15]) was at least 20 µM throughout. In addition, the Kd in the experiment with HLA-A*11:01 [6] (setting [15]), in the experiment with HLA-A*24:02 [7] (setting [15]), with HLA-A*02:01 [3] (setting [15]) and with HLA-B*58:01 (setting [15]) was at least 20 µM in each case.
For VRKCLQLIF, in the experiment with HLA-C*07:02 (source organism: Saccharomyces cerevisiae), the Kd was 0.053 µM.
On to YTYDLAEYR, for which the Kd in the experiment with HLA-B*15:42 is at least 5 µM; with HLA-B*83:01, at least 5 µM; in the experiment with HLA-A*31:01 [8], 0.0083 µM; in the experiment with HLA-A*11:01 [9], 0.0213 µM; with HLA-A*68:23 it was at most 0.0001 µM; with HLA-B*45:06 it was at least 5 µM.
In the case of TVFYNIPPM, in the experiment with HLA-C*14:02, the Kd amounted to 0.003 µM. That is a single-digit nanomolar value.
The sequence ISPRNYFTF returned a Kd with HLA-A*24:02 [7] (source organism: Toxoplasma gondii) of at most 0.001 µM.
With MIYELCTFR, the Kd with HLA-B*08:02, in the experiment with HLA-B*18:01, with HLA-B*15:09 (setting [16]), with HLA-A*01:01 (setting [16]), in the experiment with HLA-B*07:02 (setting [16]) and in the experiment with HLA-B*27:05 (setting [16]) was at least 20 µM each time. The Kd in the experiment with HLA-B*40:01 (setting [16]) was at least 20 µM; in the experiment with HLA-A*03:01 (setting [16]) it was 0.844 µM; in the experiment with HLA-B*44:02 (setting [16]) it was at least 20 µM; in the experiment with HLA-B*15:01 [2] (setting [16]) it was at least 20 µM; in the experiment with HLA-A*02:01 [3] (setting [16]) it was at least 20 µM; with HLA-B*58:01 (setting [16]), at least 20 µM.
Consider SFKAALSSL, for which the IC50 in the experiment with HLA-B*15:01 [10] was 15.2 µM; with HLA-A*24:02 [11] it was 0.668 µM; in the experiment with HLA-A*02:01 [12] it was at least 358 µM; with HLA-B*08:01 (setting [17]) it was 45.6 µM.
Take FLPNDFFPSV: the IC50 with HLA-A*02:01 [5] (source organism: Hepatitis B virus) was determined as 0.0011 µM.
In the experiment with HLA-A*68:02, SVAHSAYEL registered a Kd of at most 0.0001 µM.
For the sequence KRVDWSVEY, the Kd with HLA-C*07:02 (source organism: SARS-CoV1) was found to be 0.261 µM; with HLA-B*27:05 (source organism: SARS-CoV1), 0.258 µM; with HLA-B*15:01 [2] (source organism: SARS-CoV1) it was 2.72 µM; with HLA-A*11:01 [6] (source organism: SARS-CoV1), 8.74 µM.
Regarding VLEKGIPTL, in the experiment with HLA-A*02:01 [5] (source organism: Rhinovirus A), the IC50 was 0.2 µM.
LYLYVPFLW displayed a Kd in the experiment with HLA-A*24:02 [7] (source organism: Bacillus cereus 03BB108) of 0.055 µM.
Consider HVDIRTLED, for which, in the experiment with HLA-A*02:01 [5] (source organism: Human papillomavirus 16), the IC50 is 25 µM.
In the experiment with HLA-B*08:01 (setting [17]), SGKNIKRTL came in with an IC50 of 63.6 µM.
As to SAICSVVRR, the IC50 in the experiment with HLA-A*02:01 [5] (source organism: Hepatitis B virus subtype adw2) is 1.43 µM.
For the sequence RGVRLHPLA, the figures for the IC50 with HLA-A*02:01 [12] and in the experiment with HLA-B*08:01 (setting [17]) were at least 87.8 µM and at least 242 µM, respectively.

As usually defined, the Kd is the concentration at which binding is half-saturated. A high value points to lower affinity. A word on the IC50: it is the midpoint of a concentration-inhibition curve.
